This is an account of results in US20190309050A1 (SUZHOU THINKING POWER BIOTECHNOLOGY, published 2019).

In assay [1] the target is Robo1 protein (ORIGEN, Art. No.: TP327713) (UniProt Q9Y6N7). Nature of the assay: SPR (BIAcore), Robo1 bound to CM5 chip; column headed 'Kd(nM)'. In general terms: Surface plasmon resonance follows binding to a sensor surface in real time, without labels.
The target is the same in assay [2]. Nature of the assay: ELISA, Robo1 coated at 1 µg/ml, detection with anti-HSA-HRP; stability test, samples 'after treatment' (treatment not described); after treatment (stability test), binding ELISA on coated Robo1.
Assay [3] shares this target. Description: SPR (BIAcore), Robo1 bound to CM5 chip.
Assay [4] has as its target T1, Robo1 protein (ORIGEN, Art. No.: TP327713) (UniProt Q9Y6N7-5 1-1606, limits assumed).
T1 construct: Bought recombinant protein; also called receptor Robo1; receptor protein Robo1
Nature of the assay: SPR (BIAcore), Robo1 bound to CM5 chip; column headed 'Kd(nM)'. How it is done: (§1) The affinity constant between the protein and Robo1 protein was detected by SPR (Surface Plasmon resonance BIAcore 200) method. […] Kinetic measurements were performed according to the method referred by Canziani et al. (2004, Anal. Biochem. 325: 301-307). Furthermore, the affinity of the Slit2N protein (Slit2N is a protein having a molecular weight of about 120 kDa at the N-terminus of the Slit2 protein) to Robo1 protein was also determined by the same method.

Assay [5] concerns the target T1, Robo1 protein (ORIGEN, Art. No.: …). Nature of the assay: SPR (BIAcore), Robo1 bound to CM5 chip; column headed 'KD(M)', by arithmetic the dissociation rate; exponent doubtful. How it is done:
as §1

The target is the same in assay [6]. Nature of the assay: SPR (BIAcore), Robo1 bound to CM5 chip. As to the method:
as §1

T1 sequence (Q9Y6N7 other isoform, or with tags, fused parts or gaps limits assumed): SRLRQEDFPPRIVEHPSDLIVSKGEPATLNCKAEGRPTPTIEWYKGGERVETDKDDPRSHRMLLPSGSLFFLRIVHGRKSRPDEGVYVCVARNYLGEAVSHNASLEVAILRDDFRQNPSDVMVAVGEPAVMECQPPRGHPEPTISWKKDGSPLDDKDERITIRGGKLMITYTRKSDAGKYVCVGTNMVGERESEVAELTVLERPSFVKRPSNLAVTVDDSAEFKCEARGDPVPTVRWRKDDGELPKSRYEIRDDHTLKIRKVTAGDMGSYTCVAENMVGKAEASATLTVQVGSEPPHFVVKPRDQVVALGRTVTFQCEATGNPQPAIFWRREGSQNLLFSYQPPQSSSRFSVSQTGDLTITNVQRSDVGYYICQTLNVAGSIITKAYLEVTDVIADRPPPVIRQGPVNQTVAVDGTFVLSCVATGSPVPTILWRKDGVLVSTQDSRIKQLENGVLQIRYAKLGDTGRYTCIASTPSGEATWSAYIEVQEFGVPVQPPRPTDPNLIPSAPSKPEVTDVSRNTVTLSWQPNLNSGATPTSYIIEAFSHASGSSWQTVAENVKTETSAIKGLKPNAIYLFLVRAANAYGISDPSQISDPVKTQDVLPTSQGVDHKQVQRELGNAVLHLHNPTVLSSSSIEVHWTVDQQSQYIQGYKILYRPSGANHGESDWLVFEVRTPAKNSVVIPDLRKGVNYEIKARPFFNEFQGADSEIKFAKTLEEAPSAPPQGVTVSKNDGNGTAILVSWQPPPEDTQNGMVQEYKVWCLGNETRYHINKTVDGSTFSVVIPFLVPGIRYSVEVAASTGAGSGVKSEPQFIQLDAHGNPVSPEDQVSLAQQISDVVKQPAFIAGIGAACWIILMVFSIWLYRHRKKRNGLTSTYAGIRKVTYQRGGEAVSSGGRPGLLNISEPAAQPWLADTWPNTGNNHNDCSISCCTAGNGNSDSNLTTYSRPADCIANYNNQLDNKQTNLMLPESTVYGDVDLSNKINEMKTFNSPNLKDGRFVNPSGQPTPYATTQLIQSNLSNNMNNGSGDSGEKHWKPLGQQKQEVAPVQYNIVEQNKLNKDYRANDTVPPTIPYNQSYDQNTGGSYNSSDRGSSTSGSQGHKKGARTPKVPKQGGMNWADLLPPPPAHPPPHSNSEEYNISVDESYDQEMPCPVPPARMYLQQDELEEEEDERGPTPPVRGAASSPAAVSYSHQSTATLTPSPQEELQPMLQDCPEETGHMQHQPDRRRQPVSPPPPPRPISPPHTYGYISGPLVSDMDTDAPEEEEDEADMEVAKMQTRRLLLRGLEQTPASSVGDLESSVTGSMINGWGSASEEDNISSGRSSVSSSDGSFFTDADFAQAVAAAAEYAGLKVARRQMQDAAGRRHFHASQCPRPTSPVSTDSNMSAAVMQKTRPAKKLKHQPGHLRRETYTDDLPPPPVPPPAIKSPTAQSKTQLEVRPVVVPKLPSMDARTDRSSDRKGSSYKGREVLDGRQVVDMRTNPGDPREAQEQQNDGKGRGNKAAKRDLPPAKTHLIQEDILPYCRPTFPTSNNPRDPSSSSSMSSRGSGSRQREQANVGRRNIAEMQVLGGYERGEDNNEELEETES
Sequence of Robo1 protein (ORIGEN, Art. No.: TP327713) (UniProt Q9Y6N7) (Q9Y6N7 other isoform, or with tags, fused parts or gaps limits assumed): as above

As a reminder, the Kd is the constant that tells how readily two partners part at equilibrium. As a reminder, the EC50 is the midpoint of the concentration-response curve. A higher EC50 goes with lower potency in that assay. In general, kon refers to the second-order rate constant of association. Lower therefore signals slow association. Regarding “Slit2D2-HSA (as disclosed in Patent Application PCT/CN2015/092079) (from UniProt O94813 271-479; P02768 25-609)”, the equilibrium dissociation constant (Kd) in assay [1] worked out at 2.8 nM. This molecule also displayed an EC50 in assay [2] of 215 nM. In assay [3], the kon amounted to 177000 M⁻¹ s⁻¹.

B1: Slit2N protein (ligand, UniProt O94813 31-1121, looked up)
chain: QCSCSGSTVDCHGLALRSVPRNIPRNTERLDLNGNNITRITKTDFAGLRHLRVLQLMENKISTIERGAFQDLKELERLRLNRNHLQLFPELLFLGTAKLYRLDLSENQIQAIPRKAFRGAVDIKNLQLDYNQISCIEDGAFRALRDLEVLTLNNNNITRLSVASFNHMPKLRTFRLHSNNLYCDCHLAWLSDWLRQRPRVGLYTQCMGPSHLRGHNVAEVQKREFVCSGHQSFMAPSCSVLHCPAACTCSNNIVDCRGKGLTEIPTNLPETITEIRLEQNTIKVIPPGAFSPYKKLRRIDLSNNQISELAPDAFQGLRSLNSLVLYGNKITELPKSLFEGLFSLQLLLLNANKINCLRVDAFQDLHNLNLLSLYDNKLQTIAKGTFSPLRAIQTMHLAQNPFICDCHLKWLADYLHTNPIETSGARCTSPRRLANKRIGQIKSKKFRCSAKEQYFIPGTEDYRSKLSGDCFADLACPEKCRCEGTTVDCSNQKLNKIPEHIPQYTAELRLNNNEFTVLEATGIFKKLPQLRKINFSNNKITDIEEGAFEGASGVNEILLTSNRLENVQHKMFKGLESLKTLMLRSNRITCVGNDSFIGLSSVRLLSLYDNQITTVAPGAFDTLHSLSTLNLLANPFNCNCYLAWLGEWLRKKRIVTGNPRCQKPYFLKEIPIQDVAIQDFTCDDGNDDNSCSPLSRCPTECTCLDTVVRCSNKGLKVLPKGIPRDVTELYLDGNQFTLVPKELSNYKHLTLIDLSNNRISTLSNQSFSNMTQLLTLILSYNRLRCIPPRTFDGLKSLRLLSLHGNDISVVPEGAFNDLSALSHLAIGANPLYCDCNMQWLSDWVKSEYKEPGIARCAGPGEMADKLLLTTPSKKFTCQGPVDVNILAKCNPCLSNPCKNDGTCNSDPVDFYRCTCPYGFKGQDCDVPIHACISNPCKHGGTCHLKEGEEDGFWCICADGFEGENCEVNVDDCEDNDCENNSTCVDGINNYTCLCPPEYTGELCEEKLDFCAQDLNPCQHDSKCILTPKGFKCDCTPGYVGEHCDIDFDDCQDNKCKNGAHCTDAVNGYTCICPEGYSGLFCEFSPPMVLPR
As usually defined, the koff is the first-order rate constant of dissociation. A low value points to a long-lived complex. As to B1, the Kd in assay [4] was 4.5 nM. In assay [5], the koff was 0.00339 s⁻¹. The molecule also returned a kon in assay [6] of 744000 M⁻¹ s⁻¹.
